Laboratory results taken from patent US20160304622A1 (GENEFRONTIER, published 2016).

Legend:
[1] = target: T1, peptide #36 of the human ADAMTS4 peptide array (GGKYCEGRRTRF) (human); test: peptide array, HRP-labeled antibody
T1 construct: Immobilized on a peptide array
T1 peptide: GGKYCEGRRTRF
Text: (§1) To be specific, as shown in the following Table, a peptide array consisting of peptides having the residue number of 12 amino acid residues and an offset of 3 amino acid residues was produced relative to a sequence covering the thrombospondin domain of human ADAMTS4.

[2] = target: T2, peptide #37 of the human ADAMTS4 peptide array (GKYCEGRRTRFR) (human); test: peptide array, HRP-labeled antibody
T2 construct: Immobilized on a peptide array
T2 peptide: GKYCEGRRTRFR
Text: as §1

[3] = target: T3, peptide #38 of the human ADAMTS4 peptide array (KYCEGRRTRFRS) (human); test: peptide array, HRP-labeled antibody
T3 construct: Immobilized on a peptide array
T3 peptide: KYCEGRRTRFRS
Text: as §1

[4] = target: T4, peptide #39 of the human ADAMTS4 peptide array (YCEGRRTRFRSC) (human); test: peptide array, HRP-labeled antibody
T4 construct: Immobilized on a peptide array
T4 peptide: YCEGRRTRFRSC
Text: as §1

[5] = target: T5, recombinant human ADAMTS4 (residues Phe213-Cys685, C-terminal Strep-tag II) (human, UniProt O75173 213-685); test: SPR (BIAcore 3000), ADAMTS amine-coupled on CM5 chip, IgG1 injected
T5 construct: Made in HEK293T cells; metalloproteinase, disintegrin, thrombospondin and cysteine-rich domains; also called recombinant ADAMTS4; not shown: Strep-tag II at the C-terminal
T5 sequence: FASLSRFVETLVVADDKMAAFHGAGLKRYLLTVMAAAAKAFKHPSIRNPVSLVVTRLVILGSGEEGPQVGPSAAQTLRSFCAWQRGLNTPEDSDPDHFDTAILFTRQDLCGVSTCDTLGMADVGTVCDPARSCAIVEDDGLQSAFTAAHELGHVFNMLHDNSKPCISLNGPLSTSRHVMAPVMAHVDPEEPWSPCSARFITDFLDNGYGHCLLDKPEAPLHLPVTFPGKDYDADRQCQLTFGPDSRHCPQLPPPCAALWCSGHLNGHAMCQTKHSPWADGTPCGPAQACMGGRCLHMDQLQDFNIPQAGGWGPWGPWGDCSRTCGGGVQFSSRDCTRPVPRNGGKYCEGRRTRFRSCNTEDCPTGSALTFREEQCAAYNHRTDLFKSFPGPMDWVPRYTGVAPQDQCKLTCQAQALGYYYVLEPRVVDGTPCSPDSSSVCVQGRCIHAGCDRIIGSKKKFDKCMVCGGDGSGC
Protocol: (§2) Surface plasma resonance interaction (BIAcore) analysis Recombinant ADAMTS species were covalently immobilized via amine coupling on CM5 sensor chip flow chambers (GE Healthcare Life Sciences, Buckinghamshire, UK). […] The KD (the affinity) was calculated from the determined Kₐ and Kd values.

[6] = target: T6, Recombinant ADAMTS5 protein containing the metalloproteinase, disintegrin and thrombospondin domains … (human, UniProt Q9UNA0 262-622); test: as above
T6 construct: Bought from R&D Systems
T6 sequence: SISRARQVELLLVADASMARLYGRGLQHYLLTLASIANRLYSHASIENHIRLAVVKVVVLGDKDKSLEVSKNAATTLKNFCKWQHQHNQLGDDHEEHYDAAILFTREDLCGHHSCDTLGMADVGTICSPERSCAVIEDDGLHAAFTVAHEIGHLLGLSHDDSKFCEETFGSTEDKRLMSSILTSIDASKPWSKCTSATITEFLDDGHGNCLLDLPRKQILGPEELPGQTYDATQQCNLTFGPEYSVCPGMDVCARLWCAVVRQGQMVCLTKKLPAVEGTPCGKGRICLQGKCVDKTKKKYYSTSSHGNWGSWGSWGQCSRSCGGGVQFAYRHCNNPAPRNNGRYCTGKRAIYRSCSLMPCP
Protocol: as §2

binding result [1]: binds | binding result [2]: binds | binding result [3]: binds | binding result [4]: binds | Kd [5]: 11.7 nM | Kd [6]: 1.46 nM
B1: human anti-ADAMTS antibody (IgG1; clone 237-53) (antibody, V domains shown)
VH: QVQLVQSGAEVKKPGSSVKVSCKASGGTFSSFAISWVRQAPGQGLEWMGGIFPIFGQANYAQKFQGRVTITADESTSTAYMELSSLRSEDTAVYYCARFSDWWEWQMDYWGQGTLVTVSS
VL: DIVMTQSPDSLAVSLGERATINCRSSQSILYSSNNNYLAWYQQKPGQPPKLLIHTASARESGVPDRFSGSGSGTDFTLTISSLQAEDVAVYYCQQYYSVSITFGQGTKVEIKR
notes: HRP-labeled in the peptide array
